Drawing on publication PMC12852852, this text covers stoichiometry N for one substance.

For the test, the target named is hClpX E285A (human) (UniProt O76031).

Broadly, the stoichiometry N is the number of molecules, sites or subunits per partner or assembly. With “hClpX E285A (from UniProt O76031 57-633) (enzyme)”, the stoichiometry N was determined as 6.
